Patent WO2021244601A1 (dated 2021)

B1: CA304 (antibody, V domains shown)
VH: EVQLQQWGAGLLKPSETLSLTCAVYGGSFSGYYWSWIRQPPGKGLEWIGEVNHSGSTNYNPSLKSRVTISVDTSKNQLSLKLNSVTAADTAVYYCARGNTMVRGVIIPFEYWDKGTLVTVSS
VL: DIVMTQTPLSLPVTLGQPASISCRSSQSLVHSDGNTYLNWFQQRPGQSPRRLIYKVSNRDSGVPDRFSGSGAGTDFTLKISRVEAEDVGVYYCTQATQFPFTFGPGTKVDIKR
B2: CA555 (antibody, V domains shown)
VH: EVQLQQWGAGLLKPSETLSLTCAVYGGSFSGYYWSWIRQPPGKGLEWIGEVNHSGSTNYNPSLKSRVTISVDTSKNQLSLKLNSVTAADTAVYYCARGNTMVRGVIIPFEYWDKGTLVTVSS
VL: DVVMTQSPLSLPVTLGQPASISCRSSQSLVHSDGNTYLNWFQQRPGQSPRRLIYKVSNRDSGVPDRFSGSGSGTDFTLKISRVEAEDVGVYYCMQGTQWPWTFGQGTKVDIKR

Assays:
Assay in all cases: cell-based or functional assay
[1] = molecular target: S protein on pseudovirus of p.1 strain (SARS-CoV-2 p.1 strain)
[2] = molecular target: S protein on pseudovirus of B.1.351 strain (SARS-CoV-2 B.1.351 strain)
[3] = molecular target: S protein on pseudovirus of B.1.1.7 strain (hCoV-19/England/QEUH-F56F0F/2021) (SARS-CoV-2 B.1.1.7 strain)

Row | Binder | IC50, pseudovirus neutralisation (method as 3.15) [1] [nM] | IC50, pseudovirus neutralisation (method as 3.15) [2] [nM] | IC50, pseudovirus neutralisation (method as 3.15) [3] [nM]
1 | B1 | 3.53 | 12.2 | 4.06
2 | B2 | 1.58 | 13.9 | 3.17
